In paper PMC11578312, “Proximity‐Unlocked Luminescence by Sequential Enzymatic Reactions from Antibody and Antibody/Aptamer (PULSERAA): A Platform for Detection and Visualization of Virus‐Containing Spots”:

T1: myoglobin (Mb) (UniProt P02144 2-154)
T1 sequence: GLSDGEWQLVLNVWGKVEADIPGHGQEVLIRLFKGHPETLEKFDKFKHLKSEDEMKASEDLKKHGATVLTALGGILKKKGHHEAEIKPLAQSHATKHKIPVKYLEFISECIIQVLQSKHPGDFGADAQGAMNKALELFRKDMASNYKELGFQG


How the values were obtained:
myoglobin (Mb) [1] = biological target: T1, myoglobin (Mb); assay: dot blot (aptamer blotting); folded in 10 mM K acetate pH 5.0; higher signal than N2 at low Mb; dot blot: 10 mM sodium phosphate pH 7.0, 10 mM KCl, 0.05% Tween-20, 100 nM oligonucleotide, 25 C, 1 h (block 2% BSA); ELONA: 500 nM aptamer, 25 C, 1 h, TBS-T wash; settings: protein: commercial; label: 3'-biotinylated oligonucleotide mixed; parallel G4 at pH 7.0 with 10 mM Na+ and 10 mM K+
myoglobin (Mb) [2] = biological target: T1, myoglobin (Mb); assay: dot blot (aptamer blotting); folded in 10 mM K acetate pH 5.0; dot blot: 10 mM sodium phosphate pH 7.0, 10 mM KCl, 0.05% Tween-20, 100 nM oligonucleotide, 25 C, 1 h (block 2% BSA); ELONA: 500 nM aptamer, 25 C, 1 h, TBS-T wash; settings: protein: commercial; label: 3'-biotinylated oligonucleotide mixed; mixed or hybrid (3+1) G4 at pH 5.0

| Binder | binding result (myoglobin (Mb) [1]) | binding result (myoglobin (Mb) [2]) |
| --- | --- | --- |
| GGGCGGGTTGGGCTGGGTTTGGGGCTGCTCGGGATTGCGGATATGG (structured_DNA) [PEA3-01–RBD-46] | binds |  |
| GGGGCTGCTCGGGATTGCGGATATGGTTTGGGCGGGTTGGGCTGGG (structured_DNA) [RBD-46–PEA3-01] |  | binds |
